According to article PMC3672086, “TWEAK-Independent Fn14 Self-Association and NF-κB Activation Is Mediated by the C-Terminal Region of the Fn14 Cytoplasmic Domain” (PLoS ONE, 2013):

Biological target: the molecule itself
Test: cross-linking; cell surface proteins of transfected HEK293/NF-κB-luc/Fn14-HA cells cross-linked with 1 mM BS3 in PBS, 20 min, room temperature; lysis in HNTG buffer, reducing SDS-PAGE, anti-myc Western blot

B1: myc epitope-tagged Fn14 extracellular domain deletion (Fn14-ΔEC) (receptor, human, UniProt Q9NP84 28-129, looked up)
chain: EQAPGAAAPPAPFRLLWPILGGALSLTFVLGLLSGFLVWRRCRRREKFTTPIEETGGEGCPAVALIQ
notes: human Fn14 splice variant (exon 2 skipped), 94-aa precursor missing amino acids 33-67 of the extracellular domain; mature myc-tagged protein 77 aa; Cloned from U87-luc cell mRNA; natural splice variant mRNA, endogenous protein not detected by the authors; also called ΔEC mutant; short Fn14 isoform; source: HEK293 or HEK293/NF-κB-luc/Fn14-HA cells, transiently transfected (pcDNA6/Fn14-ΔEC), on …
  stoichiometry N: 2
